Test results taken from US20230340160A1 (published 2023).

B1: “2+1 IgG Crossfab (CL/CH1)”; CL/CH1 exchange (M4-3 ML2/V9) (bispecific antibody)
heavy 1: not shown
heavy 2: QVQLQESGPGLVKPSQTLSLTCTVSGGSITSGYYWNWIRQHPGKGLEWIGYITYDGSNNYNPSLKSRVTISRDTSKNQFSLKLSSVTAADTAVYYCADFDYWGQGTLVTVSSASTKGPSVFPLAPSSKSTSGGTAALGCLVKDYFPEPVTVSWNSGALTSGVHTFPAVLQSSGLYSLSSVVTVPSSSLGTQTYICNVNHKPSNTKVDKKVEPKSCDKTHTCPPCPAPEAAGGPSVFLFPPKPKDTLMISRTPEVTCVVVDVSHEDPEVKFNWYVDGVEVHNAKTKPREEQYNSTYRVVSVLTVLHQDWLNGKEYKCKVSNKALGAPIEKTISKAKGQPREPQVCTLPPSRDELTKNQVSLSCAVKGFYPSDIAVEWESNGQPENNYKTTPPVLDSDGSFFLVSKLTVDKSRWQQGNVFSCSVMHEALHNHYTQKSLSLSPGK
light 1: not shown
light 2: DIQMTQSPSSLSASVGDRVTITCRASQDIRNYLNWYQQKPGKAPKLLIYYTSRLESGVPSRFSGSGSGTDYTLTISSLQPEDFATYYCQQGNTLPWTFGQGTKVEIKSSASTKGPSVFPLAPSSKSTSGGTAALGCLVKDYFPEPVTVSWNSGALTSGVHTFPAVLQSSGLYSLSSVVTVPSSSLGTQTYICNVNHKPSNTKVDKKVEPKSC
B2: “2+1 IgG Crossfab (VL/VH)”; VL/VH exchange (M4-3 ML2/V9) (bispecific antibody)
heavy 1: not shown
heavy 2: QVQLQESGPGLVKPSQTLSLTCTVSGGSITSGYYWNWIRQHPGKGLEWIGYITYDGSNNYNPSLKSRVTISRDTSKNQFSLKLSSVTAADTAVYYCADFDYWGQGTLVTVSSASTKGPSVFPLAPSSKSTSGGTAALGCLVKDYFPEPVTVSWNSGALTSGVHTFPAVLQSSGLYSLSSVVTVPSSSLGTQTYICNVNHKPSNTKVDKKVEPKSCDKTHTCPPCPAPEAAGGPSVFLFPPKPKDTLMISRTPEVTCVVVDVSHEDPEVKFNWYVDGVEVHNAKTKPREEQYNSTYRVVSVLTVLHQDWLNGKEYKCKVSNKALGAPIEKTISKAKGQPREPQVCTLPPSRDELTKNQVSLSCAVKGFYPSDIAVEWESNGQPENNYKTTPPVLDSDGSFFLVSKLTVDKSRWQQGNVFSCSVMHEALHNHYTQKSLSLSPGK
light 1: not shown
light 2: EVQLVESGGGLVQPGGSLRLSCAASGYSFTGYTMNWVRQAPGKGLEWVALINPYKGVSTYNQKFKDRFTISVDKSKNTAYLQMNSLRAEDTAVYYCARSGYYGDSDWYFDVWGQGTLVTVSSASVAAPSVFIFPPSDEQLKSGTASVVCLLNNFYPREAKVQWKVDNALQSGNSQESVTEQDSKDSTYSLSSTLTLSKADYEKHKVYACEVTHQGLSSPVTKSFNRGEC
B3: CD3/MCSP “1+1 IgG Crossfab”; VL/VH exchange (LC007/V9) (bispecific antibody)
heavy: DIQMTQSPSSLSASVGDRVTITCRASQDIRNYLNWYQQKPGKAPKLLIYYTSRLESGVPSRFSGSGSGTDYTLTISSLQPEDFATYYCQQGNTLPWTFGQGTKVEIKSSASTKGPSVFPLAPSSKSTSGGTAALGCLVKDYFPEPVTVSWNSGALTSGVHTFPAVLQSSGLYSLSSVVTVPSSSLGTQTYICNVNHKPSNTKVDKKVEPKSCGGGGSGGGGSEVQLQESGPGLVKPSQSLSLTCSVTGYSITSGYYWNWIRQFPGNKLEWMGYITYDGSNNYNPSLKNRISITRDTSKNQFFLKLNSVTTEDTATYYCADFDYWGQGTTLTVSSASTKGPSVFPLAPSSKSTSGGTAALGCLVKDYFPEPVTVSWNSGALTSGVHTFPAVLQSSGLYSLSSVVTVPSSSLGTQTYICNVNHKPSNTKVDKKVEPKSCDKTHTCPPCPAPEAAGGPSVFLFPPKPKDTLMISRTPEVTCVVVDVSHEDPEVKFNWYVDGVEVHNAKTKPREEQYNSTYRVVSVLTVLHQDWLNGKEYKCKVSNKALGAPIEKTISKAKGQPREPQVCTLPPSRDELTKNQVSLSCAVKGFYPSDIAVEWESNGQPENNYKTTPPVLDSDGSFFLVSKLTVDKSRWQQGNVFSCSVMHEALHNHYTQKSLSLSPGK
chain: not shown
light 1: DIVLTQSPSSLSASLGDRVTISCSASQGIRNYLNWYQQRPDGTVKLLIYYTSSLHSGVPSRFSGSGSGTDYSLTISNLEPEDIATYYCQQYSKLPWTFGGGTKLEIKRTVAAPSVFIFPPSDEQLKSGTASVVCLLNNFYPREAKVQWKVDNALQSGNSQESVTEQDSKDSTYSLSSTLTLSKADYEKHKVYACEVTHQGLSSPVTKSFNRGEC
light 2: EVQLVESGGGLVQPGGSLRLSCAASGYSFTGYTMNWVRQAPGKGLEWVALINPYKGVSTYNQKFKDRFTISVDKSKNTAYLQMNSLRAEDTAVYYCARSGYYGDSDWYFDVWGQGTLVTVSSASVAAPSVFIFPPSDEQLKSGTASVVCLLNNFYPREAKVQWKVDNALQSGNSQESVTEQDSKDSTYSLSSTLTLSKADYEKHKVYACEVTHQGLSSPVTKSFNRGEC
B4: CD3/MCSP “1+1 CrossMab”; CL/CH1 exchange (LC007/V9) (bispecific antibody, human IgG1, kappa, L234A L235A)
heavy 1: not shown
heavy 2: EVQLQESGPGLVKPSQSLSLTCSVTGYSITSGYYWNWIRQFPGNKLEWMGYITYDGSNNYNPSLKNRISITRDTSKNQFFLKLNSVTTEDTATYYCADFDYWGQGTTLTVSSASTKGPSVFPLAPSSKSTSGGTAALGCLVKDYFPEPVTVSWNSGALTSGVHTFPAVLQSSGLYSLSSVVTVPSSSLGTQTYICNVNHKPSNTKVDKKVEPKSCDKTHTCPPCPAPEAAGGPSVFLFPPKPKDTLMISRTPEVTCVVVDVSHEDPEVKFNWYVDGVEVHNAKTKPREEQYNSTYRVVSVLTVLHQDWLNGKEYKCKVSNKALGAPIEKTISKAKGQPREPQVCTLPPSRDELTKNQVSLSCAVKGFYPSDIAVEWESNGQPENNYKTTPPVLDSDGSFFLVSKLTVDKSRWQQGNVFSCSVMHEALHNHYTQKSLSLSPGK
light 1: DIVLTQSPSSLSASLGDRVTISCSASQGIRNYLNWYQQRPDGTVKLLIYYTSSLHSGVPSRFSGSGSGTDYSLTISNLEPEDIATYYCQQYSKLPWTFGGGTKLEIKRTVAAPSVFIFPPSDEQLKSGTASVVCLLNNFYPREAKVQWKVDNALQSGNSQESVTEQDSKDSTYSLSSTLTLSKADYEKHKVYACEVTHQGLSSPVTKSFNRGEC
light 2: DIQMTQSPSSLSASVGDRVTITCRASQDIRNYLNWYQQKPGKAPKLLIYYTSRLESGVPSRFSGSGSGTDYTLTISSLQPEDFATYYCQQGNTLPWTFGQGTKVEIKSSASTKGPSVFPLAPSSKSTSGGTAALGCLVKDYFPEPVTVSWNSGALTSGVHTFPAVLQSSGLYSLSSVVTVPSSSLGTQTYICNVNHKPSNTKVDKKVEPKSC
B5: “1+1 IgG Crossfab light chain (LC) fusion” (CH1A1A/V9) (bispecific antibody)
heavy: not shown
chain: DKTHTCPPCPAPEAAGGPSVFLFPPKPKDTLMISRTPEVTCVVVDVSHEDPEVKFNWYVDGVEVHNAKTKPREEQYNSTYRVVSVLTVLHQDWLNGKEYKCKVSNKALGAPIEKTISKAKGQPREPQVCTLPPSRDELTKNQVSLSCAVKGFYPSDIAVEWESNGQPENNYKTTPPVLDSDGSFFLVSKLTVDKSRWQQGNVFSCSVMHEALHNHYTQKSLSLSPGK
light 1: DIQMTQSPSSLSASVGDRVTITCKASAAVGTYVAWYQQKPGKAPKLLIYSASYRKRGVPSRFSGSGSGTDFTLTISSLQPEDFATYYCHQYYTYPLFTFGQGTKLEIKRTVAAPSVFIFPPSDEQLKSGTASVVCLLNNFYPREAKVQWKVDNALQSGNSQESVTEQDSKDSTYSLSSTLTLSKADYEKHKVYACEVTHQGLSSPVTKSFNRGECGGGGSGGGGSGGGGSGGGGSEVQLVESGGGLVQPGGSLRLSCAASGYSFTGYTMNWVRQAPGKGLEWVALINPYKGVSTYNQKFKDRFTISVDKSKNTAYLQMNSLRAEDTAVYYCARSGYYGDSDWYFDVWGQGTLVTVSSASVAAPSVFIFPPSDEQLKSGTASVVCLLNNFYPREAKVQWKVDNALQSGNSQESVTEQDSKDSTYSLSSTLTLSKADYEKHKVYACEVTHQGLSSPVTKSFNRGEC
light 2: DIQMTQSPSSLSASVGDRVTITCRASQDIRNYLNWYQQKPGKAPKLLIYYTSRLESGVPSRFSGSGSGTDYTLTISSLQPEDFATYYCQQGNTLPWTFGQGTKVEIKSSASTKGPSVFPLAPSSKSTSGGTAALGCLVKDYFPEPVTVSWNSGALTSGVHTFPAVLQSSGLYSLSSVVTVPSSSLGTQTYICNVNHKPSNTKVDKKVEPKSC
notes: also called 1+1 IgG Crossfab LC fusion

How the values were obtained:
[1] = molecular target: human MCSP expressed on tumor cells (human, UniProt Q6UVK1 30-2322); experiment: cell-based or functional assay
[2] = molecular target: T1, human CEA expressed on tumor cells (human, UniProt P06731 35-702); experiment: cell-based or functional assay
T1 sequence (looked up): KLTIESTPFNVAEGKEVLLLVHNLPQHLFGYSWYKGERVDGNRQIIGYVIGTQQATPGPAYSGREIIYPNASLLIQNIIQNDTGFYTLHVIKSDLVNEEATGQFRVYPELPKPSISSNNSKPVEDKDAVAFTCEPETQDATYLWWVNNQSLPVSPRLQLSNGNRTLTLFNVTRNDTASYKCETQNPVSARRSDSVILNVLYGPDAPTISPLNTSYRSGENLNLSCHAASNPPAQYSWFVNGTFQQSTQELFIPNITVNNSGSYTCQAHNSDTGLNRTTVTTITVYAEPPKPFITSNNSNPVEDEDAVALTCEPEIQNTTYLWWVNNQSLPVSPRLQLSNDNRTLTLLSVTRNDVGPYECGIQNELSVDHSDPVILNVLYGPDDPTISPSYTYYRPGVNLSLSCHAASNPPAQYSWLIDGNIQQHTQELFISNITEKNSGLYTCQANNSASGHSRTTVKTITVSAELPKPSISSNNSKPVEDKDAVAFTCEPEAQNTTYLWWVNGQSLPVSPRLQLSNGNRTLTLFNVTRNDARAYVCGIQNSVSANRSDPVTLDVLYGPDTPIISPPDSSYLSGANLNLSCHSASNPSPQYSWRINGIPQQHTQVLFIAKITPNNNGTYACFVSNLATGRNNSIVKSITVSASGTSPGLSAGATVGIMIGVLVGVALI

[3] = molecular target: T2, human CD3 expressed on Jurkat cells (human, UniProt P07766 23-207); experiment: flow cytometry on Jurkat cells
T2 construct: CD3 complex on Jurkat cells (ATCC TIB-152); also called huCD3
Method: Binding of the different bispecific constructs to CD3 on Jurkat cells (ATCC #TIB-152), and the respective tumor antigen on target cells, was determined by FACS. Briefly, cells were harvested, counted and checked for viability. 0.15 - 0.2 million cells per well (in PBS containing 0.1% BSA; 90 µl) were plated in a round-bottom 96-well plate and incubated with the indicated concentration of the bispecific constructs and corresponding IgG controls (10 µl) for 30 min at 4° C. For a better comparison, all constructs and IgG controls were normalized to same molarity. After the incubation, cells were centrifuged (5 min, 350 × g), washed with 150 µl PBS containing 0.1% BSA, resuspended and incubated for further 30 min at 4° C. with 12 µl/well of a FITC-or PE-conjugated secondary antibody. Bound constructs were detected using a FACSCantoII (Software FACS Diva). The “(scFv)₂” molecule was detected using a FITC-conjugated anti-His antibody (Lucerna, #RHIS-45F-Z). For all other molecules, a FITC- or PE-conjugated AffiniPure F(ab′)2 Fragment goat anti-human IgG Fcγ Fragment Specific (Jackson Immuno Research Lab # 109-096-098 / working solution 1:20, or #109-116-170 / working solution 1:80, respectively) was used. Cells were washed by addition of 120 µl/well PBS containing 0.1% BSA and centrifugation at 350 × g for 5 min. A second washing step was performed with 150 µl/well PBS containing 0.1% BSA. Unless otherwise indicated, cells were fixed with 100 µl/well fixation buffer (BD #554655) for 15 min at 4° C. in the dark, centrifuged for 6 min at 400 × g and kept in 200 µl/well PBS containing 0.1% BSA until the samples were measured with FACS CantoII. EC50 values were calculated using the GraphPad Prism software.
As a control, the equivalent maximum concentration of the corresponding IgGs and the background staining due to the labeled 2ndary antibody (goat anti-human FITC-conjugated AffiniPure F(ab′)2 Fragment, Fcγ Fragment-specific, Jackson Immuno Research Lab # 109-096-098) were assessed as well.

human MCSP expressed on tumor cells, sequence (Q6UVK1 30-2322): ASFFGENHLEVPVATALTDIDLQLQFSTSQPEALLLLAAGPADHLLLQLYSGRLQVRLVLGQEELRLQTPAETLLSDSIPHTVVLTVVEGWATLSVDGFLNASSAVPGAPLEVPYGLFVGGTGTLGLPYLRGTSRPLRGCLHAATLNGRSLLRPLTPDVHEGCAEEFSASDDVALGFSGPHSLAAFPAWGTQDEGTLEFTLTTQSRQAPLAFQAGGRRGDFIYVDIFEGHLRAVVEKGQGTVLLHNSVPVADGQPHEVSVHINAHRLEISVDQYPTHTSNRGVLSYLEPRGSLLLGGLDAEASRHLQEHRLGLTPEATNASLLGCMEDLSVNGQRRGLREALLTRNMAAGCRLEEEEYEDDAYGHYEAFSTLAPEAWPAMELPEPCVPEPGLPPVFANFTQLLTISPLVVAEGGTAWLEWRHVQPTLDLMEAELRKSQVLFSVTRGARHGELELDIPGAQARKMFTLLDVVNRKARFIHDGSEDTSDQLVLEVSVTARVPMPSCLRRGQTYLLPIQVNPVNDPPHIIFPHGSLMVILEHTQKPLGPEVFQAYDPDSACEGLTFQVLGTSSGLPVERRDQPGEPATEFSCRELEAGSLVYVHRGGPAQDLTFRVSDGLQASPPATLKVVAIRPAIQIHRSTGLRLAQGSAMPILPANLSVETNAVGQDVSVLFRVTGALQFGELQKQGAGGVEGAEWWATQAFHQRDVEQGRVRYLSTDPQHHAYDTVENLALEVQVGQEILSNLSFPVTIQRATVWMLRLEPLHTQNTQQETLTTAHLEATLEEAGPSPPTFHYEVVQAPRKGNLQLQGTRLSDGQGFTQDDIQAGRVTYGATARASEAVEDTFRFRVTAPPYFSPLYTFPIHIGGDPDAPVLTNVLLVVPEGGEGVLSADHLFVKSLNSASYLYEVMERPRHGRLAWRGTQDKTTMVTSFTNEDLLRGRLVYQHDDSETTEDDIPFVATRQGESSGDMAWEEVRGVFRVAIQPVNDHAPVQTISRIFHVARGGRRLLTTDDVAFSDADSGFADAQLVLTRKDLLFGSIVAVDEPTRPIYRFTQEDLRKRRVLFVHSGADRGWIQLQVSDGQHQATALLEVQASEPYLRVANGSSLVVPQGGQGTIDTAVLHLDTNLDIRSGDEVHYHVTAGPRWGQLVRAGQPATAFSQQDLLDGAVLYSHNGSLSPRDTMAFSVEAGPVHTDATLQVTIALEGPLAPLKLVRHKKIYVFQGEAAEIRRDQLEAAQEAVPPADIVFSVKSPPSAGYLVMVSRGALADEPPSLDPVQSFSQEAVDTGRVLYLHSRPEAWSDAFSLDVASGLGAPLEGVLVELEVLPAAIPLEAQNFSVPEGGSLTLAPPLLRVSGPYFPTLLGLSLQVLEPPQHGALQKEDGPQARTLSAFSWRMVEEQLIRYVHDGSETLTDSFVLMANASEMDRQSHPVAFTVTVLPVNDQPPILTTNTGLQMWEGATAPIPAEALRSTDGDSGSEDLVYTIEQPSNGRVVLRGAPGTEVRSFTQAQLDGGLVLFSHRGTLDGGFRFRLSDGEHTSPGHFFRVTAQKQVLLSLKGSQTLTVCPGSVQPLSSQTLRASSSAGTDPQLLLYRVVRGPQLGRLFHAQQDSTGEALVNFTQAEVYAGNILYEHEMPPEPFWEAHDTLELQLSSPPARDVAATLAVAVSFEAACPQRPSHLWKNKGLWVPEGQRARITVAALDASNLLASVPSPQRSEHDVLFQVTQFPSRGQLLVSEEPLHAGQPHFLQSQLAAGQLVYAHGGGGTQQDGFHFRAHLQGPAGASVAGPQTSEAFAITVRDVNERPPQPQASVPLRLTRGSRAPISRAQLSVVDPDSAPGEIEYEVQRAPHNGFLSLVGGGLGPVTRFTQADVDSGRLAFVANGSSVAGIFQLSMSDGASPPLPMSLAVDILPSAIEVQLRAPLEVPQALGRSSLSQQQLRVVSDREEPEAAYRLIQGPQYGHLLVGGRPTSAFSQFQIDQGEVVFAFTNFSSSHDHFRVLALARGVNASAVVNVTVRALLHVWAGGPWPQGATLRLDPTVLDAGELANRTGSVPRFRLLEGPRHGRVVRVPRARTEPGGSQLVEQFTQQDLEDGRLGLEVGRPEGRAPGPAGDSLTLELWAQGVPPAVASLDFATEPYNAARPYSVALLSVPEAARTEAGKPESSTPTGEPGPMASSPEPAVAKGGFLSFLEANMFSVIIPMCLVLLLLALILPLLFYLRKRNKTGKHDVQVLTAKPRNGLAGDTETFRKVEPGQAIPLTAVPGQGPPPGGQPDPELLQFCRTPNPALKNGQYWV
T2 sequence (P07766 23-207 limits assumed): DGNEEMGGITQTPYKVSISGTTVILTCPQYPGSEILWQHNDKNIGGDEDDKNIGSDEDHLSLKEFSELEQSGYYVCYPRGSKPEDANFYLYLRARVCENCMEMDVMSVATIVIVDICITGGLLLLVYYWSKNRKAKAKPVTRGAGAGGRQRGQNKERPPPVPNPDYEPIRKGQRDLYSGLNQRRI

| Binder | EC50 of killing (LDH release) of MV-3 cells, human PBMCs, E:T 10:1, 27 h [1] | EC50 of killing (LDH release) of WM266-4 cells, human PBMCs, E:T 10:1, 26 h [1] | EC50 of killing (LDH release) of MV-3 cells, human PBMCs, E:T 10:1, 21 h [1] | EC50 of killing (LDH release) of WM266-4 cells, human PBMCs, E:T 10:1, 21 h [1] | other results |
| --- | --- | --- | --- | --- | --- |
| B1 | ~0.0117 nM | 0.0129 nM |  |  |  |
| B2 | ~0.0822 nM | 0.0168 nM |  |  |  |
| B3 |  |  | 0.0409 nM | 0.0284 nM |  |
| B4 |  |  | 0.0884 nM | 0.0539 nM |  |
| B5 |  |  |  |  | EC50 of killing (LDH release) of LS-174T cells, human PBMCs, E:T 10:1, 28 h [2]: 1.56 nM; EC50 of killing (LDH release) of MC38-huCEA cells, human PBMCs, E:T 10:1, 24 h [2]: ~3.2 nM; EC50 of killing (LDH release) of MKN-45 cells, human PBMCs, E:T 10:1, 28 h [2]: 0.213 nM; binding result [3]: binds |
